Patent US20230348629A1 (BEIJING MABWORKS BIOTECH, published 2023)

B1: 70E11VH2VL4 (antibody, human IgG1, kappa, V domains shown)
VH: QVQLVQSGAEVKKPGASVKVSCKASGYTFTSYNVHWVRQAPGQGLEWMGTIYPGNLATSYNQKFKGRVTLTADTSTSTVYMELSSLRSEDTAVYYCARSGTMDYWGQGTTVTVSS
VL: EIVLTQSPGTLSLSPGERATMTCRASSSISSTYLHWYQQKPGASPKLLIYNTQNLASGVPARFSGSGSGTSYTLTISRLEPEDFAVYYCQQFGGYPLITFGAGTKLELKR
notes: Humanized anti-TIGIT antibody, human IgG1 and kappa constant regions; also called anti-TIGIT antibody 70E11VH2VL4; monospecific anti-TIGIT antibody
B2: bevacizumab (antibody, V domains shown)
VH: EVQLVESGGGLVQPGGSLRLSCAASGYTFTNYGMNWVRQAPGKGLEWVGWINTYTGEPTYAADFKRRFTFSLDTSKSTAYLQMNSLRAEDTAVYYCAKYPHYYGSSHWYFDVWGQGTLVTVSS
VL: DIQMTQSPSSLSASVGDRVTITCSASQDISNYLNWYQQKPGKAPKVLIYFTSSLHSGVPSRFSGSGSGTDFTLTISSLQPEDFATYYCQQYSTVPWTFGQGTKVEIKR
notes: also called Avastin bevacizumab
B3: MBS310-6 (bispecific antibody, human IgG1, kappa)
heavy 1: not shown
heavy 2: not shown
light 1: not shown
light 2: EIVLTQSPGTLSLSPGERATMTCRASSSISSTYLHWYQQKPGASPKLLIYNTQNLASGVPARFSGSGSGTSYTLTISRLEPEDFAVYYCQQFGGYPLITFGAGTKLELKRTVAAPSVFIFPPSDEQLKSGTASVVCLLNNFYPREAKVQWKVDNALQSGNSQESVTEQDSKDSTYSLSSTLTLSKADYEKHKVYACEVTHQGLSSPVTKSFNRGEC
notes: two half antibodies (knob and hole) expressed in HEK-293F cells and assembled in vitro; also called asymmetrical anti-VEGF/TIGIT bispecific antibody; anti-TIGIT/VEGF bispecific antibody
B4: MBS310-4 (bispecific antibody, human IgG1, kappa)
heavy: not shown
light: B3 light 2
notes: also called symmetrical anti-VEGF/TIGIT bispecific antibody

How the values were obtained:
[1] = target: T1, human TIGIT on HEK293A/human TIGIT cells (human, UniProt Q495A1 22-244); test: cell-based or functional assay
T1 sequence: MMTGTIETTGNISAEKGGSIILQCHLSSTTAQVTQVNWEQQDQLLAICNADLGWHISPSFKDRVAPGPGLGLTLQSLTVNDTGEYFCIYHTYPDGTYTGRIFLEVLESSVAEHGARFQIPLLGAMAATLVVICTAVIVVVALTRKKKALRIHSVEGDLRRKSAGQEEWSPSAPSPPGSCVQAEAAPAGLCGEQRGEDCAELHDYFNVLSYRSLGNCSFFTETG

[2] = target: T1, human TIGIT on HEK293A/human TIGIT cells; test: FACS on HEK293A/human TIGIT cells, antibody titrated, MFI
Experimental: (§1) Briefly, 10⁵ HEK293A cells in 100 μl cell culture medium were seeded onto a 96-well plate, which was later added with 50 μl serially diluted bispecific antibodies of the disclosure. After incubation at 4° C. for 1 h, the plate was washed with PBS for three times, added with APC-goat-anti-mouse IgG (1:500, Cat #: 405308, BioLegend, USA). After incubation at 4° C. for 1 h, the plate was washed with PBS for three times, and measured for fluorescence using a cytometry (BD).

[3] = target: T2, monkey TIGIT on HEK293A/monkey TIGIT cells (monkey); test: FACS on HEK293A/monkey TIGIT cells, antibody titrated, MFI
T2 construct: also called cell surface monkey TIGIT
T2 sequence (chain, as listed by the source limits assumed): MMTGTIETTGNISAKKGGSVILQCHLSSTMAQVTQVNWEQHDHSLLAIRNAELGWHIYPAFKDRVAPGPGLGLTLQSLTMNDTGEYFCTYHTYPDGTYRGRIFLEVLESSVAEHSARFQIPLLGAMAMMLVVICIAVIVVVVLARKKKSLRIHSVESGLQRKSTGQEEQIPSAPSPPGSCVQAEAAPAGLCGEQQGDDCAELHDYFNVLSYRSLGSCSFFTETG
Experimental: as §1

[4] = target: T3, human TIGIT-his protein (Cat #:10917-H08H, Sino Biological) (human, UniProt Q495A1 22-141); test: SPR (BIAcore 8K), human TIGIT-his coupled to the chip, antibody injected
T3 construct: Bought soluble protein; also called TIGIT molecules; not shown: his tag
T3 sequence: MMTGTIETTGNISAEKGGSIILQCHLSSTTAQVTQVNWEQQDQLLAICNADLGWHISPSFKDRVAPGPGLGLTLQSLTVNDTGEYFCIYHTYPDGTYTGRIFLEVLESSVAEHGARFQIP
From the text: (§2) Using BIAcore™ 8K instrument (GE Life Sciences, US), the binding affinity of the bispecific molecules of the disclosure to human TIGIT and VEGF was quantitatively measured. Briefly, 100-200 response units (RU) of human TIGIT-his protein (Cat #:10917-H08H, Sino Biological, CN) or human VEGF-A (Cat #:11066-HNAN, Sino Biological, CN) were coupled to CMS biosensor chips (Cat #:BR-1005-30, GE Life Sciences, US). The un-reacted groups were then blocked with 1M ethanolamine Serially diluted antibodies at concentrations ranging from 0.3 μM to 10 μM were injected into the SPR running buffer (HBS-EP buffer, pH7.4, Cat #:BR-1006-69, GE Life Sciences, US) at 30 μL/min. The binding affinity was calculated with the RUs of blank controls subtracted, and the association rate (kₐ) and dissociation rate (kd) were determined using the one-to-one Langmuir binding model (BIA Evaluation Software, GE Life Sciences, US). The equilibrium dissociation constant KD was calculated as the kd/kₐ ratio.

[5] = target: T4, TIGIT-mFc molecules (Cat #: 10917-H38H, Sino Biological) (UniProt Q495A1 22-141); test: FACS blocking assay: antibody titrated and premixed with 5 ug/ml TIGIT-mFc, binding of TIGIT-mFc to human PVR on A549/human PVR cells
T4 construct: not shown: mFc (mouse Fc)
T4 sequence (looked up): T3 sequence
Experimental: After incubation at 4° C. for 1 h, the plate was washed with PBS for three times, and then added with PE-goat-anti-mouse IgG (1:500, Cat #:31861, Thermofisher, USA). After incubation at 4° C. for 1 h, the plate was washed with PBS for three times, and measured for fluorescence using a cytometry (BD).

[6] = target: T5, human VEGF-C-his molecules (Cat #:VEC-H4225, Acrobiosystems) (human, UniProt P49767 103-227, limits assumed); test: ELISA, plate coated with human VEGF-C-his, antibody titrated (axis labelled MFI)
T5 construct: Bought protein; not shown: his tag
T5 sequence (looked up): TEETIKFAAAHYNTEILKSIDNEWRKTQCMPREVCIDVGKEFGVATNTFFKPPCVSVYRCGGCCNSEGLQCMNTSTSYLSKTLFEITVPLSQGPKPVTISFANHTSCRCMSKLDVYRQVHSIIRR
Experimental: (§3) Briefly, an ELISA plate was coated with 100 μl 500 ng/ml human VEGF-A molecules (Cat #:11066-HNAN, Sino Biological, CN), mouse VEGF-A molecules (Cat #:50159-MNAB, Sino Biological, CN), human VEGF-B-his molecules (Cat #:VE6-H5225, Acrobiosystems Co., CN) and human VEGF-C-his molecules (Cat #:VEC-H4225, Acrobiosystems Co., CN) respectively overnight at 4° C. […] The ELISA plate was added with freshly prepared Ultra-TMB (Cat #:555214, BD, USA), and left still for 5 min for color development. The absorbance was read at 450 nm using SpectraMax® i3X microplate reader.

[7] = target: T6, human VEGF-A molecules (Cat #:11066-HNAN, Sino Biological) (human, UniProt P15692-4 27-191); test: SPR (BIAcore 8K), human VEGF-A coupled to the chip, antibody injected
T6 construct: Bought protein; also called human/monkey VEGF; VEGF molecules
T6 sequence (P15692 other isoform, or with tags, fused parts or gaps limits assumed): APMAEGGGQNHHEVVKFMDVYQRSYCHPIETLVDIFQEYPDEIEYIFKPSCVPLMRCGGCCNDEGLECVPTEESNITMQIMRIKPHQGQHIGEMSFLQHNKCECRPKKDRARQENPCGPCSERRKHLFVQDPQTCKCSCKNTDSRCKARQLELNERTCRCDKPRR
From the text: as §2

[8] = target: T6, human VEGF-A molecules (Cat …); test: ELISA, plate coated with human VEGF-A, antibody titrated, OD450
Experimental: as §3

[9] = target: T1, human TIGIT on HEK293A/human TIGIT cells; test: FACS on HEK293A/human TIGIT cells, antibody titrated, no free VEGF-A
Experimental: as §1, with “of the disclosure and 50 μl free human VEGF-A molecules at the final concentration of 0 ng/ml, 50 ng/ml or 50 μg/ml (Cat #:11066-HNAN, Sino Biological, CN). After incubation” for “of the disclosure. After incubation”, “three times, and added with” for “three times, added with”

[10] = target: T1, human TIGIT on HEK293A/human TIGIT cells; test: as above; remark: listed apart in the source
Experimental: as §1, with “of the disclosure and 50 μl free human VEGF-A molecules at the final concentration of 0 ng/ml, 50 ng/ml or 50 μg/ml (Cat #:11066-HNAN, Sino Biological, CN). After incubation” for “of the disclosure. After incubation”, “three times, and added with” for “three times, added with”

[11] = target: T1, human TIGIT on HEK293A/human TIGIT cells; test: FACS on HEK293A/human TIGIT cells, antibody titrated in the presence of 50 ng/ml free human VEGF-A
Experimental: as §1, with “of the disclosure and 50 μl free human VEGF-A molecules at the final concentration of 0 ng/ml, 50 ng/ml or 50 μg/ml (Cat #:11066-HNAN, Sino Biological, CN). After incubation” for “of the disclosure. After incubation”, “three times, and added with” for “three times, added with”

[12] = target: T1, human TIGIT on HEK293A/human TIGIT cells; test: FACS on HEK293A/human TIGIT cells, antibody titrated in the presence of 50 ug/ml free human VEGF-A
Experimental: as §1, with “of the disclosure and 50 μl free human VEGF-A molecules at the final concentration of 0 ng/ml, 50 ng/ml or 50 μg/ml (Cat #:11066-HNAN, Sino Biological, CN). After incubation” for “of the disclosure. After incubation”, “three times, and added with” for “three times, added with”

| Binder | EC50, NK92 (NK92MI-CD16a) cell-mediated ADCC, LDH release [1] | EC50, PBMC-mediated ADCC, death rate of GFP+ cells by FACS [1] | EC50 (read off the curve) [2] | EC50 (read off the curve) [3] | Kd [4] | IC50 (read off the curve) [5] | binding result [6] | Kd [7] | EC50 (read off the curve) [8] | EC50 (read off the curve) [9] | EC50 (read off the curve) [10] | EC50 (read off the curve) [11] | EC50 (read off the curve) [12] | binding result [8] |
| --- | --- | --- | --- | --- | --- | --- | --- | --- | --- | --- | --- | --- | --- | --- |
| B1 | 142 pM | 162 pM | ~400 pM | ~200 pM | 8050 pM | ~2000 pM | – | – | – | – | – | – | – | – |
| B2 | – | – | – | – | – | – | no binding (tested: about 100 nM (LOG.Con about 2)) | – | – | – | – | – | – | – |
| B3 | 268 pM | 183 pM | ~800 pM | ~1000 pM | 12800 pM | ~4000 pM | no binding (tested: about 100 nM (LOG.Con about 2)) | 166 pM | ~600 pM | ~1000 pM | ~900 pM | ~1000 pM | ~800 pM | – |
| B4 | – | – | – | – | – | – | – | – | – | – | – | – | – | binds |
